Test results taken from the DeepSol protein solubility set.

Assay: soluble on expression in E. coli; label from the status in PepcDB or PDB records
With “MQDEFYMARALKLAQRGRFTTHPNPNVGCVIVNNGDIVGEGYHHRAGEPHAEVHALRMAGAKAKGATAYVTLEPCSHHGRTPPCCDALIAAGVARVVAAMQDPNPQVAGRGLYRLQQAGIAVSHGLMMSEAEALNKGFLKRMRTGFPYLQLKLGASVDGRTAMASGESQWITSPQARRDVQRLRAQSHAILTSSATVLADDPALTVRWAELDASTQASYPQENLRQPVRIVIDSQNRVTPAHRIVQQPGETWIARTQEDSRAWPDAVRTISVPAHNGHLDLVVLMMQLGRQQINSIWVEAGPGLAGALLQAGLVDELIVYVAPKLLGTQARGLCELPGLEKLADAPQFTFSEIRHVGPDVCLHMVSA” the “soluble on expression in E. coli” value was “soluble”. In the case of “DALAVALLQARGFSAEDFALSHPGGALGRKLLLKLSDIMHFGNALPKVSPDALIRDALLEISEKGLGMTAIVDEHDAMLGIFTDGDLRRTLDKRIDIHTTAIGEVMTKNPTTAHPEMLAVEGLNLMQNKNINALILCKEDKIVGALNMHDLLKAGVM”, the “soluble on expression in E. coli” value is reported as “not soluble”. In the case of “MAGDRKRGFIRPDEDYALIEPQRWGLPDYGDSKEKKAKQTAFNYDPSWVPNFDEPEEEQALELTEEQIELIKQGAYQEGLYQGQEAGFKQGYDKGKEEGLQAGHAEGLELGKAEGVSAGQEFIQQQVEVFMNLANQFAQPLELMNAQVEKQLVDMVLCLVKEVVHVEVQTNPQIILDTVKQSVEALPISGHPITLHLNPEDVAIIRSAYGEEDLDCRNWTLVSEPSLNRGDVQIEAGESSINYRMEERIKSVLHSFCGANRHQEGE”, the “soluble on expression in E. coli” value is reported as “not soluble”. In the case of “GSEDTMDRINKDHDHTTSVASRFILADVITSTAFSNASGDINTYASSYIEYEVGVDNQLYYAEVRENEPSSSSTFNNSWNGIYSSLKNARIIIDQCGEGGRDHGNDVTRGMAEVMAAYNCALIADFFGDAPCSQAALVDEKGSPVYMTPKMDTQQEIYTQIISYLDDAIANLQKEDLADVTEQDFLYAGDADKWLKFAYGLKARYTMRLINRSSNKSADYEKVLDYVSKSFTSADDQAAFDIYDSNNINPFYGFYNSRAGFGASTSLGTKLLAYNDPRANRAFFTPIVDKKRSQVAANDPSLVPAPNGSPDQSTSKYGISAFVYAKTAPTLLMSYHELMFLKAEALCRLNRDAEDALKEAVVAGLLNAENSISIAIKELGSGLNTNSSEVITETSAGKYFDDVVKAKYAANPLQETMIQKYLAMWGASGEATETYNDFRRMKGLNENFITLTNPNNSSKFPLRYPYGNSDTAANPEVKAAYGNGDYVYSEPVWWAGGSR”, the “soluble on expression in E. coli” value is reported as “soluble”. With “MGSDKIHHHHHHMTWSATWRLSLELRQLRYLVGVVDAGSVSRAAQSLHVAQPALSAQIARLEEELGARLLIRSVRGVVPTEAGTAVLRQARLILKQVDAIAELAHEADADPTGSVSLGLPWTVRSVVGLPLLHQVRERLPQVRLEIIEGPSPALAMQTAQGKLDLAVVFENTPDNSLVLKPLATESLLLVGQRGSLVGRHNLKLEELAGLPLLMLSRPNGVREDIERQCAKRGIRLKIVAEINAPSLLIDAVRGGLGYSVLPACGIEQACRDGLLDAITLEGGSMQRTAHLGTSKLFALSRAAEHTAALLQESVAHAIGDRRWQATSPNEAD” the “soluble on expression in E. coli” value was “not soluble”. For “MSNLDNPGIYYQERFFANDGVPDTGRELIAEYRQLITQFRNFIRDFSTGGFGMIYRDQLKRNYFSHEYRLEINLNHLKNFDEDIEMKLRKFPGKVLPALEEAAKIVADEITTPRPKGEEKLHDIQVTLTLDEYPTSLRQVKSAQVSQVVKISGIIVAAAQVRSKATKVTLQCRQCKHTIPDVSIKPGLEGFALPRTCAAPQQGQMQRCPIDPYIMLPDKCECVDYQTLKLQENPEDVPHGEMPRHLQLFTERYLTDKVVPGNRVTIVGVYSIKKLIQKKGGDKSLQGIRTPYLRVLGIHMETSGPGRTNFTTFTPEEERMFKTLAQRKDAYELIAKSIAPSIYGSADIKKSIACLLFGGARKKLPDGITRRGDINVLLLGDPGTAKSQLLKFVEQVSPIGVYTSGKGSSAAGLTASVIRDPQSRSFIMEGGAMVLADGGVVCIDEFDKMREDDRVAIHEAMEQQTISIAKAGITTTLNSRCSVLAAANSVYGRWDESRGDDNIDFMPTILSRFDMIYIVKDTHDVLKDATLAKHVIEVHVNASAAKERDIAGVPKTATTDSDGVMTMFDTDGFLTIEFLKKFVTYARLNCGPRLTPQASEKLVNHYVKMRNPVVNADAFKSGKKAHNSAIPITVRQLEAIVRIAESIAKMELQQFATDKHVEEALRLFRVSTIEAAATGNLAGVEGFTSTADQEALNRIEVQMKKRFAIGTHVSEHLIVQDFVARQHYRESLVKKVIDNLVRRGDLQQKMQRKMLYRVR”, the “soluble on expression in E. coli” value was “not soluble”.
